# Assay results reported in PMC11543921 (iScience, 2024).
# B1: human recombinant glutamate-oxaloacetate transaminase (enzyme, UniProt P17174 1-413, looked up)
# chain: MAPPSVFAEVPQAQPVLVFKLTADFREDPDPRKVNLGVGAYRTDDCHPWVLPVVKKVEQKIANDNSLNHEYLPILGLAEFRSCASRLALGDDSPALKEKRVGGVQSLGGTGALRIGADFLARWYNGTNNKNTPVYVSSPTWENHNAVFSAAGFKDIRSYRYWDAEKRGLDLQGFLNDLENAPEFSIVVLHACAHNPTGIDPTPEQWKQIASVMKHRFLFPFFDSAYQGFASGNLERDAWAIRYFVSEGFEFFCAQSFSKNFGLYNERVGNLTVVGKEPESILQVLSQMEKIVRITWSNPPAQGARIVASTLSNPELFEEWTGNVKTMADRILTMRSELRARLEALKTPGTWNHITDQIGMFSFTGLNPKQVEYLVNEKHIYLLPSGRINVSGLTTKNLDYVATSIHEAVTKIQ
# Target: the molecule itself
# Assay: MALDI-TOF MS
protein,measurement,value
B1,stoichiometry N,2
